In patent publication US6191256A, “Recombinant factor VIII binding peptides” (Bayer Corporation, priority 1998, dated 2001):

Assays:
rFVIII [1] = target: T1, rFVIII (Homo sapiens, UniProt P00451); test: confirmatory binding assay in filtration plate format using 14C-rFVIII; conditions: for 0.5M CaCl2 % total / 2% acetic acid % total / 2% acetic acid dpm / 0.5M CaCl2 dpm: 5 mg beads; for 0.5M CaCl2 dpm: 5° C.; for beads % total / beads dpm: remaining on beads after washes
Method: Confirmatory binding assays were performed in a filtration plate format using individual peptide sequences synthesized directly onto the TOYOPEARL AF amino 650 M resin, at a final substitution density of 0.1 mmole/g resin. A slurry of each individual peptide sequence was prepared using deionized water. A 100 μL volume of beads (corresponding to 5 mg) was loaded into each well of the filtration plate (MULTISCREEN Assay System, Millipore, Bedford, Mass.), in triplicate for each peptide sequence. Beads were washed with 20% ethanol and incubated overnight with equilibration buffer (20 mM imidazole, 10 mM
CaCl2, 0.105 M NaCl, pH 6.9). A 100 μL aliquot of ^14 C-rFVIII diluted in neat PPF to a final concentration of 20-30 nM was loaded into each well and incubated for 1 hour at 5° C. Filtrate (unbound ^14 C-rFVIII) was collected into a microtiter plate and transferred to liquid scintillation vials for dpm counting. Beads were washed sequentially with: 100 μL of equilibration buffer for 15 minutes, 200 μL of 0.5 M CaCl2 (in equilibration buffer), 200 μL of 1.0 M CaCl2 (in equilibration buffer), and 200 uL of 2% by volume glacial acetic acid in water, for 1 hour each at 5° C. Scintillation counting on the unbound ^14 C-rFVIII (plus equilibration buffer wash), salt and acid washes, as well as on the beads was then performed and the overall mass balance calculated.
Beads presenting the appropriate peptide sequence on the surface were placed in the filtration plate wells and incubated sequentially with equilibration buffer, ^14 C-rFVIII in PPF, equilibration buffer, 0.5 M CaCl2 wash, 1.0 M CaCl2 wash and 2% acetic acid wash. After each incubation, filtrate was collected in microtiter plates, and dpm counted on each
In Table 3, the ^14 C-rFVIII was loaded at 20 nM (in PPF) and the radiolabeling yield was at 3.0×10^15 dpm/mole. In Table 4, the ^14 C-rFVIII was loaded at 30 nM (in PPF) and the radiolabeling yield was at 5.0×10^15 dpm/mole.

rFVIII [2] = target: T1, rFVIII; test: column format binding assay, rFVIII mass per fraction by sandwich capture ELISA for the light chain; conditions: for Flow through ng: 10,000 ng rFVIII in 1:10 PPF injected, 5° C.; for ELISA results % total: Table 9, 0.5M CaCl2 fraction
Method: (§1) Immunoassay on rFVIII using a sandwich capture ELISA for the light chain and activity assay using a chromogenic substrate (COATEST Factor VIII kit from diaPharma, Franklin, Ohio) were performed on a BIOMEK® automated liquid handling system from Beckman Instruments (Brea, Calif.). The monoclonal antibody for rFVIII light chain (known as C7F7), the ELISA assay standard (lot A70K019), and the control for the activity assay (lot A70A001 @ 140 IU/mL) were from the Bayer Corporation (Berkeley, Calif.). The standard for the activity assay was at 11.2 IU/mL (Bayer, Clayton, N.C.), calibrated against the MEGA 1 standard, which is a working standard used by American manufacturers for measuring factor VIII activity (21).
(§2) Additional confirmatory binding assay and performance of the discovered binding peptides in terms of total rFVIII and activity recovery was performed in a column chromatographic format on a microbore HPLC. The resins were packed into 0.4×5 cm columns (Thomson, Springfield, Va.) and tested on the MICHROM HPLC system (Michrom BioResources, Auburn, Calif.). The elution program for the trials utilized the following method. The column was pre-equilibrated with equilibration buffer (as above). A 1 mL aliquot of 1:10 PPF followed by 1 mL of rFVIII (10,000 ng) in 1:10 PPF were injected and allowed sufficient time to flow through the column using equilibration buffer. The column was then washed with step elutions of 0.5 M and 1.0 M CaCl2 in equilibration buffer. The column was exposed to equilibration buffer. Remaining protein was eluted with 2% by volume glacial acetic acid in water. Columns were kept at 5° C. during the chromatographic runs. For each 1 mL injection (equilibration buffer, 1:10 PPF and 10,000 ng rFVIII in 1:10 PPF), the chromatographic cycle was run for 45 minutes (injection, flow through, 0.5 M CaCl2, 1.0 M CaCl2, equilibration buffer, 2% acetic acid, equilibration buffer).
(§3) A Gilson FC204 fraction collector at the HPLC outlet collected individual eluates for further analysis. Each collection tube had 100 μL hSA added to it to stabilize the rFVIII. Fractions collected from the 2% acetic acid eluates were neutralized with 2 M Tris, pH 10.5 to bring the pH to neutrality. The fractions were analyzed for total protein by the integration of the absorbance at 280 nm, for rFVIII by immunoassay (sandwich capture ELISA), and for rFVIII activity by a chromogenic substrate assay.
Tables 5 and 6 present the results from the additional confirmatory binding assays using the column format. The chromatography method was run by injecting the samples at a flow rate of 865 μL/min (413 cm/hr). In order to provide a 10 minute residence time of sample in the column the flow was decreased to 17 μL/min (10 cm/hr) upon injection.
Following the incubation, the flow was set at 865 μL/min (413 cm/hr) for the step clutions of 0.5 M CaCl2, 1.0 M CaCl2, and 2% acetic acid. Results are expressed in terms of the total mass of rFVIII in each fraction, as determined by the sandwich capture ELISA assay for the rFVIII light chain. […] A control using a non-binding peptide sequence (IGF) is also shown for comparison--in this case, 95% of the rFVIII loaded to the column was collected in the flow through fraction. Additional controls with no

rFVIII [3] = target: T1, rFVIII; test: rFVIII activity recovery from peptide columns by chromogenic substrate assay (COATEST); format: biochemical; conditions: for 0.5M CaCl2 IU / 2% acetic acid % total / 2% acetic acid IU / Flow through % total / Total IU / 0.5M CaCl2 % total / Flow through IU: Table 8; for 0.5M CaCl2 % total: activity recovery; for Flow through IU: rFVIII activity in fraction; for Activity results % total: Table 9, 0.5M CaCl2 fraction
Method: as §1, §2, §3
Tables 7 and 8 list the sequences for which activity recovery was determined by a chromogenic substrate assay (COASTEST kit, diaPharma, Franklin, Ohio). Chromatographc conditions are the same as described above for the results from Tables 5 and 6. It can be

[4] = Table 4, 14C-rFVIII 30 nM in PPF
[5] = Table 4, 14C-rFVIII 30 nM in PPF, 5.0 × 10^15 dpm/mole
[6] = Table 3, 14C-rFVIII 20 nM in PPF
[7] = Table 3, 14C-rFVIII 20 nM in PPF, 3.0 × 10^15 DPM/mole

T1 sequence (P00451 20-2351): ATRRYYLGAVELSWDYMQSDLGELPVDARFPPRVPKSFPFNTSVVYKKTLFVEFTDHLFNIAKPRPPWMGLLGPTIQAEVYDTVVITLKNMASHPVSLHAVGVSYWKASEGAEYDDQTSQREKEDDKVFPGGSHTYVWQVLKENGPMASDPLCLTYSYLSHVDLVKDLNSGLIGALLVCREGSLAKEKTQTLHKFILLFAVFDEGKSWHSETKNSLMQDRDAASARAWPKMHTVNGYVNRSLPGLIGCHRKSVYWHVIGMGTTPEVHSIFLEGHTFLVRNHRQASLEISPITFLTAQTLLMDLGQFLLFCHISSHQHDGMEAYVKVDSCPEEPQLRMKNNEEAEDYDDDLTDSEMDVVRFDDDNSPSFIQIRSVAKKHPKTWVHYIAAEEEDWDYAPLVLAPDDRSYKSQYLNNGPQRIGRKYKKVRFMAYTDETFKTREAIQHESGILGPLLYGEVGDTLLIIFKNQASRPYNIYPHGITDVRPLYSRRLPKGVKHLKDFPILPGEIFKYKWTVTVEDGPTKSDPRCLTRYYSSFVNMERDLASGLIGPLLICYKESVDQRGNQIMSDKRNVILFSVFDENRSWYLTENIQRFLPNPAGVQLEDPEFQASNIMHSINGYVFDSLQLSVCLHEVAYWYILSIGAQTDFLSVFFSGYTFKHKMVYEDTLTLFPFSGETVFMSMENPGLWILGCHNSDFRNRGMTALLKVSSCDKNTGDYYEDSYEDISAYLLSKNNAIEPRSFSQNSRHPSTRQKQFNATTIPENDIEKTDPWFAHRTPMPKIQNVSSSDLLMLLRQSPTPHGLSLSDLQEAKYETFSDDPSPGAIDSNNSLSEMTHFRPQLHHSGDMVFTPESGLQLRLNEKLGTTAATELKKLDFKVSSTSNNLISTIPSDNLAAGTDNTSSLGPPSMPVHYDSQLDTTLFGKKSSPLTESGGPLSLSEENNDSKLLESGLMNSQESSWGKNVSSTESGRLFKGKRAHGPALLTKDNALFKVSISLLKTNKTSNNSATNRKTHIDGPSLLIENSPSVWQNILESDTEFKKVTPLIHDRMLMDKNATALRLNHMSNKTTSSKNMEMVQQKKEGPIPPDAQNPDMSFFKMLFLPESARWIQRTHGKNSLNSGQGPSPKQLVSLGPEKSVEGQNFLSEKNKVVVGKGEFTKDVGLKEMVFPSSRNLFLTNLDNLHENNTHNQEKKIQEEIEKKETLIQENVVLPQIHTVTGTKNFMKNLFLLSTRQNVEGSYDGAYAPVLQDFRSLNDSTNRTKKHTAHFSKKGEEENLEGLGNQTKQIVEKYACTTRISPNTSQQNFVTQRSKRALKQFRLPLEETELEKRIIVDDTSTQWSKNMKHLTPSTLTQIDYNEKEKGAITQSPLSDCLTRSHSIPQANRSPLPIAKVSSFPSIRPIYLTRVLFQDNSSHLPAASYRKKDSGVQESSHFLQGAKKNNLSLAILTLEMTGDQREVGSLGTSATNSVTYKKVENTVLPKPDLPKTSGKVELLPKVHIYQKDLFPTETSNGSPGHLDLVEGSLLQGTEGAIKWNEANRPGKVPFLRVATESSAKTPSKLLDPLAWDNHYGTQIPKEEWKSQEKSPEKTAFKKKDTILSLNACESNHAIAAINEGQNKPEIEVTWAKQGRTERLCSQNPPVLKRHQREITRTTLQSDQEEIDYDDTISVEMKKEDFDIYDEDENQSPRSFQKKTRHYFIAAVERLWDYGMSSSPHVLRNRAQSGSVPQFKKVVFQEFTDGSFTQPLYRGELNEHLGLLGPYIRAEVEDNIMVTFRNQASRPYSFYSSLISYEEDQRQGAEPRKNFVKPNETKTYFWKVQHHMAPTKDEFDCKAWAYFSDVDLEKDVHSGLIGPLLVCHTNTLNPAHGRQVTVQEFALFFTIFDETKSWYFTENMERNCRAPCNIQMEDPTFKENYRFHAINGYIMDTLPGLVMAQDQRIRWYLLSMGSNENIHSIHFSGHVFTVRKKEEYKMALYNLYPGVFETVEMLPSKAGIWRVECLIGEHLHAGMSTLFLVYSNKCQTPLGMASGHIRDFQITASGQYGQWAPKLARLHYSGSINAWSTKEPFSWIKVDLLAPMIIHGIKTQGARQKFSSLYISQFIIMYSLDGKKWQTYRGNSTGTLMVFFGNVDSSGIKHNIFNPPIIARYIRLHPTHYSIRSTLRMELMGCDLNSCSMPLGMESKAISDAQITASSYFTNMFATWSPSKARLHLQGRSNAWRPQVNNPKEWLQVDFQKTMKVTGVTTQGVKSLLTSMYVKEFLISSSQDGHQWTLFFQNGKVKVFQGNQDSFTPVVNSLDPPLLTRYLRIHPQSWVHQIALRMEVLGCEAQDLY
T1 sequence (P00451 1668-2351 limits assumed): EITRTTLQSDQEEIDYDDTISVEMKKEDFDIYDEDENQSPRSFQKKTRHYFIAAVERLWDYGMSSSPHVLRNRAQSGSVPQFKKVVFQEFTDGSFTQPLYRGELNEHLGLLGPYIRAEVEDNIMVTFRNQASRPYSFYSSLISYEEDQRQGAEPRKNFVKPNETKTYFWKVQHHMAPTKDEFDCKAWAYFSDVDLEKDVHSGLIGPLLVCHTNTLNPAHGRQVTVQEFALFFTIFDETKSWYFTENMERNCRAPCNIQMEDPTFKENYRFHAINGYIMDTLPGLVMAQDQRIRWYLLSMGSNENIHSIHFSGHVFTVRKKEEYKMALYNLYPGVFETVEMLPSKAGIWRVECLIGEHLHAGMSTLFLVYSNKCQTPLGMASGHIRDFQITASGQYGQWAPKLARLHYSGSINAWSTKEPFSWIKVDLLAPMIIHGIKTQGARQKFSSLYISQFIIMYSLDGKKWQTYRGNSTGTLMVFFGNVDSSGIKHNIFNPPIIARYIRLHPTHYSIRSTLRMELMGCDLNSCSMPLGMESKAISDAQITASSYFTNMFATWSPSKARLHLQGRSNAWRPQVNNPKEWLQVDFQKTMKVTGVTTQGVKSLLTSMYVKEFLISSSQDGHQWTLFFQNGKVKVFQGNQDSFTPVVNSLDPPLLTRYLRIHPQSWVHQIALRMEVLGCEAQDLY

Total dpm (rFVIII [1]; Table 4, 14C-rFVIII 30 nM) | 0.5M CaCl2 % total (rFVIII [1]; [4]) | 2% acetic acid % total (rFVIII [1]; [4]) | 2% acetic acid dpm (rFVIII [1]; [4]) | 0.5M CaCl2 dpm (rFVIII [1]; [5]) | beads % total (rFVIII [1]; Table 4, 14C-rFVIII 30 nM) | beads dpm (rFVIII [1]; Table 4, 14C-rFVIII 30 nM) | 0.5M CaCl2 ng (rFVIII [2]; Table 6) | 0.5M CaCl2 % total (rFVIII [2]; Table 6) | 2% acetic acid % total (rFVIII [2]; Table 6) | 2% acetic acid ng (rFVIII [2]; Table 6) | Flow through % total (rFVIII [2]; Table 6) | Total ng (rFVIII [2]; Table 6) | Flow through ng (rFVIII [2]; Table 6) | ELISA results % total (rFVIII [2]) | 0.5M CaCl2 IU (rFVIII [3]) | 2% acetic acid % total (rFVIII [3]) | 2% acetic acid IU (rFVIII [3]) | Flow through % total (rFVIII [3]) | Total IU (rFVIII [3]) | Substance | also measured
3557 dpm | 90% | 8% | 271 dpm | 3191 dpm | 3% | 95 dpm | 9223 ng | 96% | 2% | 188 ng | 0% | 9579 ng | 0 ng | 96% | 45.1 IU | 0% | 0.08 IU | 0% | 46.6 IU | 12 (QRLIQF) [compound 12] | 0.5M CaCl2 % total (rFVIII [3]): 97%; Flow through IU (rFVIII [3]): 0.0 IU; Activity results % total (rFVIII [3]): 97%
2184 dpm | 91% | 6% | 130 dpm | 1994 dpm | 3% | 60 dpm | 2850 ng | 32% | 1% | 75 ng | 66% | 8851 ng | 5828 ng | 32% | 14.7 IU | 0% | 0.00 IU | 73% | 58.6 IU | 14 (EPRVIG) [compound 14] | 0.5M CaCl2 % total (rFVIII [3]): 25%; Flow through IU (rFVIII [3]): 42.9 IU; Activity results % total (rFVIII [3]): 25%
 |  |  |  |  |  |  |  |  |  |  |  |  |  |  |  |  |  |  |  | 17 (FYRFWN) [compound 17] | Total dpm (rFVIII [1]; Table 3, 14C-rFVIII 20 nM): 3009 dpm; 0.5M CaCl2 % total (rFVIII [1]; [6]): 17%; 2% acetic acid % total (rFVIII [1]; [6]): 72%; 2% acetic acid dpm (rFVIII [1]; [6]): 2156 dpm; 0.5M CaCl2 dpm (rFVIII [1]; [7]): 498 dpm; beads % total (rFVIII [1]; Table 3, 14C-rFVIII 20 nM): 12%; beads dpm (rFVIII [1]; Table 3, 14C-rFVIII 20 nM): 355 dpm; 0.5M CaCl2 ng (rFVIII [2]; Table 5): 1622 ng; 0.5M CaCl2 % total (rFVIII [2]; Table 5): 37%; 2% acetic acid % total (rFVIII [2]; Table 5): 54%; 2% acetic acid ng (rFVIII [2]; Table 5): 2336 ng; Flow through % total (rFVIII [2]; Table 5): 3%; Total ng (rFVIII [2]; Table 5): 4348 ng; Flow through ng (rFVIII [2]; Table 5): 127 ng
 |  |  |  |  |  |  |  |  |  |  |  |  |  |  |  |  |  |  |  | IGF [reference compound] | Total dpm (rFVIII [1]; Table 3, 14C-rFVIII 20 nM): 274 dpm; 0.5M CaCl2 % total (rFVIII [1]; [6]): 80%; 2% acetic acid % total (rFVIII [1]; [6]): 15%; 2% acetic acid dpm (rFVIII [1]; [6]): 41 dpm; 0.5M CaCl2 dpm (rFVIII [1]; [7]): 219 dpm; beads % total (rFVIII [1]; Table 3, 14C-rFVIII 20 nM): 5%; beads dpm (rFVIII [1]; Table 3, 14C-rFVIII 20 nM): 14 dpm; binding of rFVIII in words (rFVIII [1]; plate format): non binder; 0.5M CaCl2 ng (rFVIII [2]; Table 5): 201 ng; 0.5M CaCl2 % total (rFVIII [2]; Table 5): 4%; 2% acetic acid % total (rFVIII [2]; Table 5): 0%; 2% acetic acid ng (rFVIII [2]; Table 5): 10 ng; Flow through % total (rFVIII [2]; Table 5): 95%; Total ng (rFVIII [2]; Table 5): 4962 ng; Flow through ng (rFVIII [2]; Table 5): 4719 ng
